Experimental data reported in patent US20160159920A1.
Several values for one entry are separate records, joined by “and”; a condition that tells them apart may be missing. Identical values can stand only once.

Target: human Leptin receptor (LepR) (human) (UniProt P48357)
Experiment: cell-based or functional assay

Chain of human Leptin receptor (LepR) (human) (P48357 22-1165): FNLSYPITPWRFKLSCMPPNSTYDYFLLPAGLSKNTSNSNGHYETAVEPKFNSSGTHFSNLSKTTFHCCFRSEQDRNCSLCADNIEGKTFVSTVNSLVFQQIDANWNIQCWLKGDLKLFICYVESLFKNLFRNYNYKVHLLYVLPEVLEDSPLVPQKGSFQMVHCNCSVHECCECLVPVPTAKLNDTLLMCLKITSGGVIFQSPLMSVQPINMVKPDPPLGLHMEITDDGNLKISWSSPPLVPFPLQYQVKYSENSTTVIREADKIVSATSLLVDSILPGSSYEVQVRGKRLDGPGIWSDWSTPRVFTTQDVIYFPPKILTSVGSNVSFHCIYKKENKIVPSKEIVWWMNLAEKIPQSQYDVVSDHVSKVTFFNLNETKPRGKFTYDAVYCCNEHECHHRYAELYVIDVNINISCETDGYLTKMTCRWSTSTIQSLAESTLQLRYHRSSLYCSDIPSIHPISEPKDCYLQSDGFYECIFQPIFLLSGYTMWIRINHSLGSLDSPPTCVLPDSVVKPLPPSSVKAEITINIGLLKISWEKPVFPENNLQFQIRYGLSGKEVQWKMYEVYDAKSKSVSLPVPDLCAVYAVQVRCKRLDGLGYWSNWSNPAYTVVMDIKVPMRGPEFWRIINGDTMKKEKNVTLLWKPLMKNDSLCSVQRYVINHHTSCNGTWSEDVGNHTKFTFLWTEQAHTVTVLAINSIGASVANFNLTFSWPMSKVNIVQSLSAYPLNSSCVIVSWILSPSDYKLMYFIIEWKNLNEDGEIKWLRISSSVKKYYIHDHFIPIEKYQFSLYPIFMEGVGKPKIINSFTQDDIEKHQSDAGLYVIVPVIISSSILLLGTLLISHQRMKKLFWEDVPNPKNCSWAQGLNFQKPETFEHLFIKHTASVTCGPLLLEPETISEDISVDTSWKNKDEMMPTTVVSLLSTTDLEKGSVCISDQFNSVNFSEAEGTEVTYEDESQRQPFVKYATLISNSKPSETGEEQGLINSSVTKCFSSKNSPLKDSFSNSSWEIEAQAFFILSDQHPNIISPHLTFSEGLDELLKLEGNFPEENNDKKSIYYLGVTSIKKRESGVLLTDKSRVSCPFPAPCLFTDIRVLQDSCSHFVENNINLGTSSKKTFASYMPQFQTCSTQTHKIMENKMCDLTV

EC50, AlamarBlue proliferation of Baf3 stable cells overexpressing LepR: 129 ρM and 58.2 ρM
Substance: hLeptin (SEQ ID NO: 238) (from UniProt P41159 22-167) (ligand)
